Experimental data from the supplement of paper PMC9170038.

Test system: MS2 coat protein
Assay: apparent KD of MS2 coat protein; designed switch direction (-1 OFF switch, 1 ON switch): -1; higher = weaker reporter binding
Outline: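 On Illumina chips, designed RNA switches with common flanks were made by stalled E. coli RNA polymerase. Titrations with SNAP-549-labelled MS2 coat protein, doubling from 0.7 or 1.5 nM to 3 µM, were done with no input, with 200 uM small-molecule ligand, or with an oligonucleotide input. Apparent KD is the median per design over clusters, from curve fits of normalised cluster fluorescence.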

[1] = input ligand: microRNA oligo, concentration not stated
[2] = Eterna round: R95, input ligand: microRNA oligo, concentration not stated

Row | Sequence | apparent KD of MS2 coat protein (input ligand: FMN 200 uM) | apparent KD of MS2 coat protein [1] | apparent KD of MS2 coat protein (input ligand: none) | apparent KD of MS2 coat protein [2] | apparent KD of MS2 coat protein (Eterna round: R95, input ligand: FMN 200 uM) | apparent KD of MS2 coat protein (Eterna round: R95, input ligand: none)
1 | UGUUGUCGCGCAGGAUAUGCAUGAGGAUCACCCAUGCAAUUAGAGUUAACAUGAGGAUCACCCAUGUAGAAGGGCGGGACAACU [pwkr exNG2 2xF5 1xFMN.5] (Eterna round: R96, puzzle: Exclusion NG 2) | 65.1 nM | 27.6 nM | 54.2 nM | – | – | –
2 | UGUUGUCGCGUAGGAUAUGGCCAACAGGCCCUAGGAUAUCGGAAACGAGAAGGAGCGCCAACAGGCGAGAAGGACGGGACAACU [pwkr exNG2 2xF7 2xFMN.20] (Eterna round: R96, puzzle: Exclusion NG 2) | 33 nM | 52.7 nM | 10.7 nM | – | – | –
3 | UGUUGUUACGCAGGAUAUGGCCAACAGGCCCUAGGAUAUCCGAAAGGAGAAGGAGCGCCAACAGGCGAGAAGGGCGGGUUAACA [pwkr exNG2 2xF7 2xFMN.14] (Eterna round: R96, puzzle: Exclusion NG 2) | 201 nM | 55.7 nM | 140 nM | – | – | –
4 | UGUUGUUACGCAGGAUAUGUAUGAGGAUCACCCAUAAGAGUAUAUUUACCAUGAGGAUCACCCAUGUAGAAGGGCGGGUUAACA [pwkr exNG2 2xF5 1xFMN.10] (Eterna round: R96, puzzle: Exclusion NG 2) | 224 nM | 109 nM | 144 nM | – | – | –
5 | UGUUUACAUGAGGAUCACCCAUGUCAGGAUAUGAUCGAUAUAUGGAAACAUAUAUCGAUCAGAAGGGACUAGUG [Jieuxxlusion 2 - Jieux - Exclusion 1] (Eterna round: R97, puzzle: Exclusion 1) | 88.2 nM | – | 82.6 nM | – | – | –
6 | UUAAAUCAUGUAGGAUAUGCGUGGCGAAGCUAUGCAGAAGGACAUGAGGAUCACCCAUGUGCUUCCGUCUGCGUACAGACGGUA [JL ENG1 1.14] (Eterna round: R96, puzzle: Exclusion NG 1) | 258 nM | 79.2 nM | 91.2 nM | – | – | –
7 | UUAAAUCAUGUAGGAUAUGCGUGGCGAAGCUAUGCAGAAGGACAUGAGGAUCACCCAUGUUCUGCGGUCUGCGUACAGAUCGCU [JL ENG1 1.04] (Eterna round: R96, puzzle: Exclusion NG 1) | – | 14.9 nM | – | – | – | –
8 | UUAACGUCAGGAUAUGCAUAAUAUAUUAUAUUAUAAUAUAUACAUGAGGAUCACCCAUGUAGAAGGGACAUUAU [LRO-Excl2-01-Fireball XL5] (Eterna round: R97, puzzle: Exclusion 2) | 42.7 nM | – | 29.8 nM | – | – | –
9 | UUAAUUAAUAAUUAAGAUCAUUACAUGAGGAUCACCCAUGUCGAGGAUAUCAGCUCGUGUAGAGCUGAGAAGGCGACAAAUUAU [ExNG3/13-B3] (Eterna round: R96, puzzle: Exclusion NG 3) | 586 nM | 268 nM | 633 nM | – | – | –
10 | UUAGAAUUGUUAGGAUAUUAAUUAUUGUUUAGUAUGAUCUACAUGAGGAUCACCCAUGUUAAAUAUAAGAAGGAACGUUAGAUU [JR_ExcNG2_Sub095] (Eterna round: R96, puzzle: Exclusion NG 2) | 43.7 nM | 35.6 nM | 51.3 nM | – | – | –
11 | UUAGCUCAAGUCAGGAUAUUAGAGGCUUGCCUAAAUAAGAAGGGACAUGAGGAUCACCCAUGUCUAUGCAUGUA [BmEX4 A.16] (Eterna round: R97, puzzle: Brourd's mod of Exclusion 4) | 21.5 nM | – | 15.9 nM | – | – | –
12 | UUAGGAUCAGGAUAUGAUGUUUUUUACAUGAGGAUCACCCAUGUUGAUCCUGAUUCAACAUCAGAAGGGAUAAUUU [JR_Ex5_Sub081] (Eterna round: R97, puzzle: Exclusion 5) | 85.2 nM | – | 21.4 nM | – | – | –
13 | UUAGUGUUAGGAUAUCCGGCUCCAAGGCACCAAAACCGGGCGGAGAAGGAACAUGAGGAUCACCCAUGUGACCA [Eternabot (Original) Solution 31] (Eterna round: R97, puzzle: Exclusion 4) | 53.7 nM | – | 49.1 nM | – | – | –
14 | UUAUAAAGUGUGAGGAUAUGCUGGUCGAUAGAUCAGCAGAAGGCACAUGAGGAUCACCCAUGUAAUAUAUUUUA [Mat - Exclusion 4 - JL Mod - D45] (puzzle: Brourd's mod of Exclusion 4) | – | – | – | 50 nM | – | –
15 | UUAUACGUUGAGGAUAUGCGACUUAGUAUAGUUGUAGAAGGCGAUACAUGAGGAUCACCCAUGUUUAUGGGCAU [LRO-Ex6-09] (puzzle: Exclusion 6) | – | – | – | 227 nM | – | –
16 | UUAUUAGCAGGAUAUAUCCAGGAUUACAUGAGGAUCACCCAUGUGGCCGCUUGAAAUUCUAUAGAAGGGCUUUAUU [Mod of ViennaUCT 36 - Jieux - Exclusion 5] (Eterna round: R97, puzzle: Exclusion 5) | 52.7 nM | – | 45.8 nM | – | – | –
17 | UUAUUAUAUGUAGGAUAUGCAUAUUGUUGUUAUGCAGAAGGACAUGAGGAUCACCCAUGUGUAUUAUUGUUAUAUAUUAUAUAU [Title] (Eterna round: R96, puzzle: Exclusion NG 1) | – | 16.5 nM | – | – | – | –

Row | Sequence | apparent KD of MS2 coat protein (input ligand: FMN 200 uM) | apparent KD of MS2 coat protein [1] | apparent KD of MS2 coat protein (input ligand: none) | apparent KD of MS2 coat protein [2] | apparent KD of MS2 coat protein (Eterna round: R95, input ligand: FMN 200 uM) | apparent KD of MS2 coat protein (Eterna round: R95, input ligand: none)
18 | UUAUUAUAUGUAGGAUAUGCGUAUUAUUGUUAUGCAGAAGGACAUGAGGAUCACCCAUGUAUAUUAUUGUUAUAUAUUGUAUAU [Title] (Eterna round: R96, puzzle: Exclusion NG 1) | 28.9 nM | 19.8 nM | 21.7 nM | – | – | –
19 | UUAUUAUGUGUAGGAUAUGCAUAUUAUUAUUAUGCAGAAGGACAUGAGGAUCACCCAUGUAUAUUAUUAUUAUAUAUUAUAUAU [Title] (Eterna round: R96, puzzle: Exclusion NG 1) | – | 25.1 nM | – | – | – | –
20 | UUAUUGCAAGCAAGAUCCCACAUGAGGAUCACCCAUGUGCUCGUCUUAUAAGGUACUGUGACGAAAGUCACGGUACC [Sensor 3, v1 - 99] (puzzle: Sensor v3, turn-off variant 1) | – | – | – | 462 nM | 26 nM | 30.6 nM
21 | UUCAUGUGAGGAUAUAGUACUCUUUCUAUUAUUUUUGAGUAUUAGAAGGCACAUGAGGAUCACCCAUGUAGUAC [Ex4 - 3 - 42] (puzzle: Exclusion 4) | – | – | – | 40.8 nM | – | –
22 | UUCCAUUCAGGAUAUCGAUGGAAUCACAUGAGGAUCACCCAUGUGAUACCUAGGUGACCGCGAGAAGGGAAAGGGU [EX5 B.7] (Eterna round: R97, puzzle: Exclusion 5) | 13.8 nM | – | 12.9 nM | – | – | –
23 | UUCCUACUUGAGGAUCACCCAAGUCAGGAUAUCCAUAGCCGACACUCUUUUCGGAACGGGAGAAGGGACUUGGU [Tiisatbi] (Eterna round: R97, puzzle: Exclusion 1) | 97.5 nM | – | 37.2 nM | – | – | –
24 | UUCGUGCAGCUUUGCUGUACGCGUACAUGAGGAUCACCCAUGUAGGAUAUGGUACGCUUUGCGUGCUAGAAGGAUAUGUGGAGG [JL EXNG3 1.35] (Eterna round: R96, puzzle: Exclusion NG 3) | 59.1 nM | 33.6 nM | 45.2 nM | – | – | –
25 | UUCGUGCUGCUUUGCUGUACGAGUACAUGAGGAUCACCCAUGUAGGAUAUGGUACGCUUUGCGUGCUAGAAGGAUAUGUGUAGC [salish99_ExNG3_r04_505] (Eterna round: R96, puzzle: Exclusion NG 3) | 26.7 nM | 18.9 nM | 25.4 nM | – | – | –
26 | UUCUUGUGAGGAUAUCAGUAGUAAAUAAAUAAAAUUACUACUGAGAAGGCACAUGAGGAUCACCCAUGUUCCUU [salish99_ex3_r3_092] (puzzle: Exclusion 4) | – | – | – | 15 nM | – | –
27 | UUCUUUAUACGAGGAUAUCAUACAUGAGGAUCACCCAUGUAACUGGGUCUAUUUUUAUAUAAUAUUGAGAAGGCGUUUUGCUAU [JR_ExcNG2_Sub071] (Eterna round: R96, puzzle: Exclusion NG 2) | 52.6 nM | 31.1 nM | 36.8 nM | – | – | –
28 | UUCUUUAUACGAGGAUAUCAUACAUGAGGAUCACCCAUGUGGCUGGGUCUGUUUUUAUAUAAUAUUGAGAAGGCGUUUUUCUAU [JR_ExcNG2_Sub073] (Eterna round: R96, puzzle: Exclusion NG 2) | 291 nM | 79.8 nM | 78.9 nM | – | – | –
29 | UUGAAGAUAGGAUAUACGAGGAGAGGAGAGAGAAGGUGAGGACAUGAGGAUCACCCAUGUAGAAGGAUCAGGAA [JR_Exclu2_Sub065] (puzzle: Exclusion 2) | – | – | – | 75.4 nM | – | –
30 | UUGAAGUCAGGAUAUCGUUAAUUUAGUUGUUUGUAUUAGUUCGAGAAGGGACAUGAGGAUCACCCAUGUAAGUA [Ex4 #47] (Eterna round: R97, puzzle: Exclusion 4) | 32.7 nM | – | 40.5 nM | – | – | –
31 | UUGGGCAGAGGAUAUCGUACGUAGCACAUGAGGAUCACCCAUGUGGCCAGCCGCUAAACAUGAGAAGGUUGUGUAC [Eternabot (Original) Solution 8] (Eterna round: R97, puzzle: Exclusion 5) | 17.6 nM | – | 14.3 nM | – | – | –
32 | UUGUGCACGCUGCGAUCCUACAUGAGGAUCACCCAUGUGGUCUGGUGGCGUGGGUCACCGGACUUGGCUCGUCUUGA [salish99_S_TOV1_R5_068] (Eterna round: R97, puzzle: Sensor, turn-off variant 1) | 118 nM | – | 129 nM | – | – | –
33 | UUGUGCACGCUGCGGUCCUACAUGAGGAUCACCCAUGUGGUCUGGUGGCGUGGGUCACCGGACUUGGCUCGUCUUGC [salish99_S_TOV1_R5_059] (Eterna round: R97, puzzle: Sensor, turn-off variant 1) | 22.5 nM | – | 22.8 nM | – | – | –
34 | UUGUUAUAUGUAGGAUAUGCAUAUUAUUAUUAUGCAGAAGGACAUGAGGAUCACCCAUGUAUAUUGUUAUUAUAUAUUAUAUAU [Title] (Eterna round: R96, puzzle: Exclusion NG 1) | – | 19 nM | – | – | – | –
